Kd data for two molecules are collected here from paper PMC8184587.

The Kd is the concentration at which binding is half-saturated. The low end stands for a tighter complex, the high end for a looser complex.

For one data set, the target named is T1, BRM AT (AT-hook alone) (Homo sapiens, UniProt P51531 1358-1377).
T1 chain: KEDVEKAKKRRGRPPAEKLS
Description: NMR.

A further data set deals with ATGGGP-L-BD (Homo sapiens, UniProt P51531-2 1358-1490, R1368G;R1370G). Description: NMR.
For the next data set, the target named is ATDGDP-L-BD (Homo sapiens, UniProt P51531-2 1358-1490, R1368D;R1370D). Description: NMR.
Data set [1] has as its target T2, BRM AT-L-BD WT (BRM-B) (Homo sapiens, UniProt P51531-2 1358-1490). Description: NMR.
In data set [2] the target is T2, BRM AT-L-BD WT (BRM-B). Description: fluorescence anisotropy. (Fluorescence polarisation rises when a labelled molecule tumbles more slowly, as on binding a larger partner.)
In the next data set the target is AT-LANAA-BD (Homo sapiens, UniProt P51531-2 1358-1490, P1378A;P1380A;P1381A). Description: fluorescence anisotropy.

B1: 10 bp NMR dsDNA (dsDNA)
DNA 1: CTCAATTGGT
DNA 2: ACCAATTGAG
On to B1, for which the Kd in the data set with BRM AT (AT-hook alone) is 220 ± 30 µM; in the data set with ATGGGP-L-BD it was 130 ± 30 µM; with ATDGDP-L-BD, 410 ± 70 µM; with BRM AT-L-BD WT (BRM-B) [1], approximately 3 µM.

B2: DNA.FA 12 bp dsDNA (dsDNA)
DNA 1: CCTCAATTGGTC
DNA 2: GACCAATTGAGG
Consider B2, for which the Kd worked out at 8 ± 1 µM with BRM AT-L-BD WT (BRM-B) [2] and 4 ± 1 µM in the data set with AT-LANAA-BD.
